Results published in patent publication WO2018007922A2 (dated 2018).

Molecular target: recombinant human TTR F87M/L110M (human, UniProt P02766 21-147)
Assay: Biacore SPR, mAb captured on anti-human chip, TTR F87M/L110M as analyte

Kd: 2.09 nM
B1: Hu9D5 H4L1 (antibody, V domains shown)
VH: EVQLVESGGGLVQPGGSLRLSCAASGFTFSSYTMSWVRQAPGKGLEWVSEISNSGDTTYYPDTVKGRFTISRDNAKNSLYLQSNLLRAEDTAVYYCARHYYYGGGYGGWFFDVWGQGTTVTVSS
VL: DIVMTQSPLSLPVTPGEPASISCRSSKSLLHSNGNTYLYWFLQKPGQSPQLLIYRVSNLASGVPDRFSGSGSGTDFTLKISRVEAEDVGVYYCMQHLEYPLTFGQGTKLEIK
notes: not tied by words to the tested antibody; also called humanized 9D5 VHv4/VLv1
